In patent publication US20230295297A1:

Assays:
[1] = biological target: recombinant human TREM2-DAP12 fusion protein expressed on cells (human); test: FACS, HEKhT2 cells; isotype control
[2] = biological target: human TREM2 on primary cells (human) (UniProt Q9NZC2); test: FACS, primary hDC; isotype control
[3] = biological target: human TREM2 on primary cells (human) (UniProt Q9NZC2); test: FACS, primary hMAC; isotype control
[4] = biological target: TREM2 protein of the 'Percent APOE binding' column of Table 9B; test: TREM2 binding to APOE with isotype control
[5] = biological target: mouse TREM2 on cells (mouse) (UniProt Q99NH8); test: FACS, WT mouse macrophages; isotype control
[6] = biological target: mouse TREM2 on cells (mouse) (UniProt Q99NH8); test: FACS, BWZmT2 cells; isotype control
[7] = biological target: mouse TREM2 on cells (mouse) (UniProt Q99NH8); test: FACS, WT mouse macrophages
[8] = biological target: TREM2 protein of the 'Percent APOE binding' column of Table 9B; test: TREM2 binding to APOE with antibody

Chain of human TREM2 on primary cells (human) (Q9NZC2 19-230): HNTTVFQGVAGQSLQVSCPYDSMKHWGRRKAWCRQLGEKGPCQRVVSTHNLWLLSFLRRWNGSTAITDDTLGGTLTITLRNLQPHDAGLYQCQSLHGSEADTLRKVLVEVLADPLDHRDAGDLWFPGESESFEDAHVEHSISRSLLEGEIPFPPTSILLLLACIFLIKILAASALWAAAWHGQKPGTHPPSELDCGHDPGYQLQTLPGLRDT
Chain of recombinant human TREM2-DAP12 fusion protein expressed on cells (human) (chain, as listed by the source limits assumed, form in doubt): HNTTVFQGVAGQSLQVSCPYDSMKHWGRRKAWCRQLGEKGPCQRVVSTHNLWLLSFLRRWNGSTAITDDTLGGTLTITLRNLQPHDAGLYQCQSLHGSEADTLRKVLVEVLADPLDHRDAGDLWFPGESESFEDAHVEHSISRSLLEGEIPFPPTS
Chain of mouse TREM2 on cells (mouse) (Q99NH8 19-227 limits assumed): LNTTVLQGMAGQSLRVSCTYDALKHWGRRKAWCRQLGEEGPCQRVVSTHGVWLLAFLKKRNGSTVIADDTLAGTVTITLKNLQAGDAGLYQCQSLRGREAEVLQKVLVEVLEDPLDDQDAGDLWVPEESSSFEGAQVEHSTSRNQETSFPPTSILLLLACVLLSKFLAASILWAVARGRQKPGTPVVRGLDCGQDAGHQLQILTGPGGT

Row | Substance | MFI HEKhT2 [1] | % Positive hDC [2] | % Positive hMAC [3] | Percent APOE binding [4] | % Positive WT BMMACS [5] | MFI BWZmT2 [6] | % Positive WT BMMACS [7] | Percent APOE binding [8]
1 | mouse IgM isotype control antibody | 124 MFI | 14.9% | 63.7% | – | – | – | – | –
2 | rat IgG2a isotype control antibody | 33 MFI | 6.2% | 10.4% | – | – | – | – | –
3 | mouse IgG2a isotype control antibody | 40.3 MFI | 7.3% | 7.9% | – | – | – | – | –
4 | mouse IgG2b isotype control antibody | 13 MFI | 6.1% | 5.3% | – | – | – | – | –

Next, values leading:

Row | MFI HEKhT2 [1] | % Positive hDC [2] | % Positive hMAC [3] | Percent APOE binding [4] | % Positive WT BMMACS [5] | MFI BWZmT2 [6] | % Positive WT BMMACS [7] | Percent APOE binding [8] | Substance
5 | 544 MFI | 8.7% | 19.6% | – | – | – | – | – | rat IgG1 isotype control antibody
6 | 16.3 MFI | 4.9% | 2.7% | 90.8% | 0.574% | 278 MFI | – | – | mouse IgG1 isotype control antibody
7 | – | – | – | – | – | – | 13.1% | 106% | commercial anti-TREM2 antibody (R&D Cat #F7E57291)
8 | 35 MFI | 0.3% | 0.9% | 102% | – | – | – | – | rat IgG2b isotype control antibody
